Assay: soluble on expression in E. coli; label from the status in PepcDB or PDB records

MNRCILLALLPLISAIPVAVNIDDQDAVNLGAYDRARFDLVESFHPLQPASAVTNDQIAEVRAKAAGVRQNEASISIDLPTQMLSGSSGRIPERLAFGEWTEWTSWSMCQNGERSRVRTCVSRKPALRVVCHGDAIEIEKCYVDAGEGHIPVAADPWSIEREISGDFA
soluble on expression in E. coli: not soluble

MRALPIADDVAGVIFALNGGDLGEDTGCVYYFAPDTLNWESLEVGYSEFLQWALSGDLDTFYENVRWQQWREDVIKLSATEAFTFYPFLWVQSEEARTRKVISLTELWEMQYQMKETFTQLEHHHHHH
soluble on expression in E. coli: not soluble

GPGSMQIRRATMEDMYQMQHCNLRCLPENYNLRYYFYHILSWPQLLYVQEDYNRNIVGYVLAKMEDEEKPANIHGHITSIAVLRTHRRLGIASRVMRASMKEMEKEYDANYCSLHVRKTNDAALHLYQETLGFRCANVEKGYYVDEEDAFHMKKFFKGPNPGLYVAANRQLVRQQNSAAAAVTGMAALQRNGGTAPPPPPPSSSSAGGQRGENDTADLEKEQLKLVAELLEESNKESGKGRQQKQKQQQQSKGGNKRGKTKK
soluble on expression in E. coli: soluble

MQEYSIDITLTHPDDVLALFGSNERHLKLIEAHLGVIVHARTERVQVIGEDEEAVELARLTIKALLVLVGRGMVVNTSDVVTALSMAESHQIDQFMALYEEEIIKDNYGKAIRVKTLGQKTYVDSVKRHDVVFGVGPAGTGKTFLAVTLAVTALKRGQVKRIILTRPAVEAGESLGFLPGDLKEKVDPYLRPVYDALYHILGKEQTTRLMERDVIEIAPLAYMRGRTLDDAFVILDEAQNTTIMQMKMFLTRLGFNSKMIVNGDTSQIDLPRNVKSGLIDATQKLQGIKQIDFVYFSAKDVVRHPVVADIIKAYETSSEEMKDLLKPKASDVEADYQPGLTKYPVIGQEHLEHHHHHH
soluble on expression in E. coli: not soluble

MNASLSSDIAPYIPTLIQQLPIIEEIKTHLPQVLPDYSADEIHATAIASVGMYLADIDYGIRQAIAPEVTPLELRQKLSAYKIELFKRIYNIQFLQPPSTPIGGLELMQQAFKTYKRLLTTLAKAYNLRLPKGILLEHHHHHH
soluble on expression in E. coli: not soluble

MGSDKIHHHHHHMADFPTRPDEVDAVWLEARLADAGVLDGARIVKVEWQSIGTGQVGDTARFSLTYDRPAPLAPASVAAKFPSSDPTSRQTAASFSLYKREVNFYRDVAGLIDMRVPRAYAALLDDNGCDFVLLFEDLGPCEAGNQLSGCGIDQARDALRQAAALHAATLDHPVLDSEWLQTDPQASAMLRALYPQAQAIFRERYADALDPALMAICDELDECADLWFDRKPARRSFLHGDFRLDNMLFGIRDGQEPIALVDWQTAAVGCGLTDIGYFMGCGIGSGLRRPHEAALLDLYCAEMTRRGVAMTRDEIMDDYRIGALHGVSTAVFSSAFVVRTERGDANFLSMARGACELALEHNSLGALKRRMENA
soluble on expression in E. coli: not soluble

MRPMTHVPVLYQEALDLLAVRPGGVYVDATLGGAGHARGILERGGRVIGLDQDPEAVARAKGLHLPGLTVVQGNFRHLKRHLAALGVERVDGILADLGVSSFHLDDPSRGFSYQKEGPLDMRMGLEGPTAKEVVNRLPLEALARLLRELGEEPQAYRIARAIVAAREKAPIETTTQLAEIVRKAVGFRRAGHPARKTFQALRIYVNDELNALKEFLEQAAEVLAPGGRLVVIAFHSLEDRVVKRFLRESGLKVLTKKPLVPSEKEAAQNPRARSAKLRAAEKEAP
soluble on expression in E. coli: soluble

MWITQEITPYLRKEYTIEAKLLDVRSEHNILEIFKSKDFGEIAMLNRQLLFKNFLHIESELLAHMGGCTKKELKEVLIVDGFDLELAHQLFKYDTHIDFVQADEKILDSFISFFPHFHEVKNNKNFTHAKQLLDLDIKKYDLIFCLQEPDIHRIDGLKRMLKEDGVFISVAKHPLLEHVSMQNALKNMGGVFSVAMPFVAPLRILSNKGYIYASFKTHPLKDLMTPKIEALTSVRYYNEDIHRAAFALPKNLQEVFKDNIKS
soluble on expression in E. coli: soluble

PKYQANTQILVNQTKGDNPQFMAQEVQSNIQLVNTYKEIVKSPRILDEVSKDLNDKYSPSKLSSMLTITNQENTQLINIQVKSGHKQDSEKIANSFAKVTSKQIPKIMSVDNVSILSKADGTAVKVAPKT
soluble on expression in E. coli: not soluble

MNDNEKQLDLRIRRTHKLLWDSLFELMTQSKQKYSTITINQICDRAMVHRTTFYKHFEDKDALLTFGFKRYGKMIAEIPVSDRLSKPFQVMEQFLHHEEIGKILETQMSDEQFINRTQYLSHETRKQEIEALNQLHKNHTMPNDLIIEFYSGAITSLSAWWFKSERKVSAAEMDRYLHQLINRDIFQFEKE
soluble on expression in E. coli: not soluble

MKLAELSKEEIQELSMVEVAYLVMKETKEPFNYQDLLKKVAELKGMSEEQMLDRIGYLYTDLNIDGRFVTLGDNRWGLRSWYPLEQVEEEITGPTKKKAKAKAEEEVDELDENIEVFDDEFEDLEDELDELAESEDSDEEDEEFDEGDDIDELDDEFEESDDDL
soluble on expression in E. coli: not soluble

QAALNSLGTNSVAATTAAQKIDQVATQPLMSFGVTMATFAAQNYGAHQYERIITGVKQTMWLSGSFSVAAGLIEIIWGKQLVGFFVGHQDMAVLNL
soluble on expression in E. coli: not soluble

MGSDKIHHHHHHGCKEKDMSMKMNEPHNIKGVISYKRSFGDLNDTHLSVAKKIGIRPLASRSEAEGLGGKLVQIKPCERYAMDSLTHSIPFLIPQASALLDTIGANFLDSLSCKGLNPNQIIVTSVLRTADDVKRLRRRNGNASANSAHAFGTTFDVSYRRFCKVEDPDGRPMQDVSPDTLKLVLAEVLRDLRKSDKCYIKYELKQGCFHITAR
soluble on expression in E. coli: not soluble

MSDKPDSQVFCPNCNERLQKCLVQQNYAIIICPSLVCGYPFNQREVLENLTYVDDNDVLKVAKKRLSSRSKP
soluble on expression in E. coli: soluble

MPIASYAQELKLALHQYPNFPSEGILFEDFLPIFRNPGLFQKLIDAFKLHLEEAFPEVKIDYIVGLESRGFLFGPTLALALGVGFVPVRKAGKLPGECFKATYEKEYGSDLFEIQKNAIPAGSNVIIVDDIIATGGSAAAAGELVEQLEANLLEYNFVMELDFLKGRSKLNAPVFTLLNAQKEALKK
soluble on expression in E. coli: soluble

MIIKVIPVGPIAVNCSVVADEKSGEAIIIDPGAEAEKILEAVKDFKVVGIVATHGHIDHVGQVGKLKELFDVPFYMNPLDKFLINDEIWSGFASYIGAVPCPEPDVEISEGDVIRVGDVEFKVLHTPGHTPGLCCLYEEKRRVLIAGDLLFKGSVGRWDLPGGNLVELKKSVKRVLTELPQDTLVICGHYDETTIGQERAFNPFAGELLNG
soluble on expression in E. coli: soluble

GSRAQSSPAAPASLSAPEPASQARVLSSSETPARTLPFTTGLIYDSVMLKHQCSCGDNSRHPEHAGRIQSIWSRLQERGLRSQCECLRGRKASLEELQSVHSERHVLLYGTNPLSRLKLDNGKLAGLLAQRMFVMLPCGGVGVDTDTIWNELHSSNAARWAAGSVTDLAFKVASRELKNGFAVVRPPGHHADHSTAMGFCFFNSVAIACRQLQQQSKASKILIVDWDVHHGNGTQQTFYQDPSVLYISLHRHDDGNFFPGSGAVDEVGAGSGEGFNVNVAWAGGLDPPMGDPEYLAAFRIVVMPIAREFSPDLVLVSAGFDAAEGHPAPLGGYHVSAKCFGYMTQQLMNLAGGAVVLALEGGHDLTAICDASEACVAALLGNRVDPLSEEGWKQKPNLNAIRSLEAVIRVHSKYWGCMQRLAS
soluble on expression in E. coli: soluble

EDPFQPEIKVRCVCGNSLETDSMIQVIWDELTAFIPCEDPRCHVWQHVGCVILPDKPMDGNPPLPESFYCEICRLT
soluble on expression in E. coli: soluble

MGSDKIHHHHHHMRGVLTMIRLFKAIPELELPVYSGEDSPVDGTEKTTGFLISNHVPGEQVEETLLVASAEIKTSQTGREWLQFTFNSPSGSCKGKQWLNQGTAEEAMRPYLETGIVHVSAKVDEYPVDSGNKSLTVQTVKAVHDQSGTAYLPQMPAGESAKDYRDQLIGLIEKMETPLRQVAHRVVSAYWDDFSTRPAALYHHHAYIGGLLKHTACMMTIGFGICQSERPDLTLLQCIQEAEADHKNDLFQAGERDMRQFAWDDSFDALYQSARSIALLNERPHQDELLLGILLHDIGKIFEYTHLGASGDRFSRLVQTEPASEKLSGIALDPNGVLIGHMPYGCFVLEQALQTEAVRLPVDQYHRLMHMILSHHGKKEWGSSVTPQTTDAWYLHAIDLLDARKEKWRQSQLT
soluble on expression in E. coli: not soluble

MSGRPFLLIHTFKDISKFREGDRDYSDIEVRYNIPWRLRIFKKEGFLGLKLYCEKEECIETKKWTFKTKFTMKLVAVDLPSSQSDFNNSFLLKHTFNNISKFVERDSDYSDAEDHYNIAWKIRILKYEECLGIYLDCQKEIYEGRKWSIKCEFKSSLISASGKFYSVQYTDVFDNRDSSMGSSTFISWIDMEKEYVTNDDCIDVTIHAKIISITDEPCEMKTFALSHTIKNMSSIREGEDYDTDTQYRFNIPWSLKILNRNEFSGLFIRCEKQLCKSRKWSIETEYQLKIVSPNGRSELFGGTYVFDNPNIYGWHIIRWSSLEDRYIVNDTLTVEAQVTIVKMTGIEDETPIEKPSGIVIPVGNQEFSLERWMEMAFDH
soluble on expression in E. coli: not soluble

MGHHHHHHSHVLLNEILEQVKDRTCLRALEKIKIQLEKGNKEFGDQAEAAQDATLTTTTFQNEDEKNKEVYMTPLRGVKATQASKSTQLKTNRGQRKVTVSARTNRRCQTAEADSESDHEVPEPESEMKMRLPRRAKTAALEKSKLNLAQFLNEDLS
soluble on expression in E. coli: not soluble

MGSDKIHHHHHHMSNIYDAVVVGSGPNGLAAAITLQRKGFAVLVLEAKDTIGGGLRTKELTLPGFKHDVCSAIHPMAVASPFFADIPLDKFGLRFTHAPIAAAHPFDHGGAAILSRSLKDTIALLGKDADNYKRLIEPVIESWPDIAADAMGPLRFPKHPLKMAAFGLNAIRSADCISKRFETEEAKGLWAGMAAHSIQPLTNWASAAIGLVLSAVGHLHGWPIPIGGSQAIADALGSYFISLGGTIQTNVEVTSLNQLPAARAVLFDVTPKQLLKITGDEFSGLYKKQLTNYRYGMGVFKVDWALSEPVPFTSDHCRQAGTVHLGNTFNEIALSEQETSSGKHPEKPFVLFAQQSKFDITRAPQGKHTAWAYCHVPNGSATDMTAAIENQLERFAPGFKDTILAKNTMNTVEIQAYNPNYIGGDINGGIIDIRQLYTRPAVKISPYRTPKKGIYICSSSTPPGGGVHGMCGFHAAQAVIQDLKKQYK
soluble on expression in E. coli: not soluble

MLIFGFIGLFFLNIFSLHAQGIVTNKDAQEEFKWALNSYNNGIYDDALLSFKKILSFDPNNLDYHFWTGNVYYRLGYVEEALMEWRNLKDQGYKVPYLRHLISTIEQRRGIFSNYELNFKKLVKVASLDNSIYKRPHGYQITSLRADKYGGYYAANFVGNEILYFDVNNNVNALVKDGFSYLKSPYDVIEANNLLYVTLYSSDEIGVYDKVLGVKRKSIGNKGTKDGELLAPQYMAIDKRNYIYVSEWGNKRVSKFGLEGDFILHFGSRTSGYKGLLGPTGVTYLNENIYVADSLRNTIEVFDTSGNHLYSVFTSIEGIEGLSSDFVGNNVIVSSKDGVYKYSIAKKTITKILKADKMNSKISSSILDANNQMIVSDFNNAKVSVYKSDASLYDSLNVDVRRIIRLGGPKIYVELNVSSKSGLPVVGLKSENFSISNENYYIVNPKVAYNVNASKDINIAVVFDKSSYMKKYDTDQIVGLNALMELSKNKNFSFINATSVPIIDNIESLTNSIRNTSSLGPYSTDAVKTDVSLKLAGSGLMSKSSRRAVVYFSGGILNRKAFEKYSLDTIVSYYKNNDIRFYLILFGNDPINSKLQYLVNETGGAVIPFSSYEGVSKVYDLILEQKTGTYLLEYYYPGPQEPNKYFNLSVEANINQQTGRGEFAYFINLEHHHHHH
soluble on expression in E. coli: not soluble

From the DeepSol protein solubility set
